Results published in patent US20260117274A1, “ORTHOGONALLY CROSSLINKED PROTEINS, METHODS OF MAKING, AND USES THEREOF” (The Research Foundation for The State University of New York, priority 2022, published 2026).
Substitutions are numbered along the chain they refer to. Names and notes keep the numbering of the source.

Assay: Intramolecular (inter-strand) crosslinking yield of nanobody/monobodies by mass spectrometry
Details: UAA-encoded monobodies, MS characterization (Table 5)
Description: To probe whether CATK-1 is suitable for inter-strand cross-linking in proteins containing the disulfide bond, we selected a small protein called nanobody NB1, a prototypical single-chain VHH antibody that binds specifically to GFP protein. Based on NB1 structure, there is one disulfide bond formed between Cys-24 and Cys-98, close to a proposed orthogonal crosslinking site at Val-4 and Tyr-106 (FIG. 5a, left). To test orthogonal crosslinking, we placed CATK-1 at Val-4 position to target Tyr-106 located 5.6 Å away on the opposing strand. The BocK- and CATK-1-encoded NB1 were successfully expressed at yields of 14.3 mg L^−1 and 3.5 mg L^−1, respectively (FIG. 5b, left). […] Separately, we also examined the utility of CATK-1 in effecting intramolecular crosslinking in an antibody mimic called monobody. Due to their lack of cysteine residues, small size (˜10 kDa), and evolvable binding affinity and specificity, monobodies represent an ideal protein scaffold for targeting protein-protein interactions in the cytosols of mammalian cells. However, monobodies are cell impermeable, severely limiting their potential. One strategy to potentially overcome this limitation is to combine protein surface supercharging with orthogonal crosslinking to increase stability in the endosomes and thus improve cytosolic delivery. To this end, we designed an overall +10 charged monobody NSa1, termed NSa1(+10), using the Supercharge protocol on ROSIE Rosetta Online Server and added an amber codon at Ala-13 position. Based on the NSa1 structure, A13CATK-1 is well-positioned to react with the proximal Tyr-92 on the opposing strand at C-terminus (FIG. 5a, right). Accordingly, the wild-type and NSa1(+10) mutant proteins encoding CATK-1 or BocK were expressed and purified in good yields (4.1-6.9 mg L^1; FIG. 5b, right). […] The crosslink-containing fragment was identified by LC/MS after trypsin digestion (FIG. 21).
To assess if BeLaK is suitable for orthogonal crosslinking of domain antibodies, we selected NSa1, a monobody-based SHP2 inhibitor, and placed BeLaK at position-13 of the N-terminal β-strand. A panel of supercharged NSa1 mutants carrying overall charges of +6, +8, +11, and +18, respectively, were designed using Supercharge protocol on ROSIE Rosetta Online Server with native NSa1 (˜2 charge) as a template. […] Thus, the supercharged monobodies encoding either BeLaK or BocK were expressed in good yields (2.2˜7.2 mg L^−1; FIG. 42). […] Furthermore, as the positive charge increases, the mobility decreases, likely due to reduced overall negative charge after association with the SDS molecules. MS analysis further confirmed the identities of the supercharged NSa1 mutants (FIG. 34c). Since the unreacted BeLaK-encoded monobodies share the same mass as the crosslinked ones, we treated the purified monobodies with excess β-mercapto-ethanol for 7 days, which accelerates the hydrolysis of the unreacted β-lactam and in turn adds +18 Da to protein mass, and monitored the intact mass change. Using this method, we determined orthogonal crosslinking yields to range from 5% for native NSa1 to more than 50% for +8/+11/+18 mutants (FIG. 42). We attribute the higher yields to the increased conformational dynamics, which promotes proximity-driven crosslinking reactions. The crosslinking sites in +11 and +18 mutants were mapped to Lys-21 and Lys-19, respectively, residues on the nearby β-strand, based on the identified fragment masses after trypsin digestion (FIG. 34d, FIG. 50).
Crosslinking yield determination of BeLaK-encoded NSa1 variants. To quantify the extent of crosslinking, β-mercaptoethanol (20 mM) was added at a final concentration of 2.58 mM (100 equiv, 3 μL) to a solution of purified NSa1 variants (25 μM, 30 μL) in elution buffer (50 mM Na2HPO4, pH=7.4, 300 mM NaCl, 250 mM imidazole). The mixture was incubated at 37° C. overnight. Afterwards, the mixture was removed from the incubator and allowed to incubate at 25° C. for 1 week.

B1: NSa1(+7)-A13BeLaK: supercharged NSa1 monobody encoding BeLaK; SEQ. ID. NO: 11 (protein)
chain: MGSSHHHHHHSSGTENLYFQGVSSKPTKLRVVRXTPTSLKIKWDAPAVTVDYYVITYGEKGRGGYAWQEFEVPGSKRTATISGLKPGVDYTITVYAGYKGYPTYYSSPISINYRT
modifications: BeLaK non-natural residue at position 13; MOD_RES 34 X is N6-(2-Oxoazetidine-1-carbonyl)-L-lysine
notes: supercharged NSa1 monobody encoding BeLaK; ID; NO: 11
B1 showed a X-linking yield of 61%.

B2: NSa1(+5)-A13BeLaK-Y92K: supercharged NSa1 monobody encoding BeLaK; SEQ. ID. NO: 7 (protein)
chain: B1 chain with K42S, R62S, Y113K
modifications: BeLaK non-natural residue at position 13; MOD_RES 34 X is N6-(2-Oxoazetidine-1-carbonyl)-L-lysine
notes: supercharged NSa1 monobody encoding BeLaK; ID; NO: 7
Work on B2 yielded a X-linking yield of 53%.

B3: NSa1(+10)-A13BeLaK: supercharged NSa1 monobody encoding BeLaK; SEQ. ID. NO: 14 (protein)
chain: B1 chain with V48K, K60T, E69R, S82K
modifications: BeLaK non-natural residue at position 13; MOD_RES 34 X is N6-(2-Oxoazetidine-1-carbonyl)-L-lysine
notes: supercharged NSa1 monobody encoding BeLaK; ID; NO: 14
B3 gave a X-linking yield of 86%.

B4: NSa1(+17)-A13BeLaK: supercharged NSa1 monobody encoding BeLaK; SEQ. ID. NO: 18 (protein)
chain: MGSSHHHHHHSSGTENLYFQGVKSKPTKLRVVRXTPTSLKISWKAPKKTVDYYVITYGKTGSGGYAWQRFRVPGSKRTAKIKGLKPGVDYTITVYAGYKGYPTYYSSPISINYRT
modifications: BeLaK non-natural residue at position 13; MOD_RES 34 X is N6-(2-Oxoazetidine-1-carbonyl)-L-lysine
notes: supercharged NSa1 monobody encoding BeLaK; ID; NO: 18
In the case of B4, the X-linking yield is reported as 87%.

B5: NSa1(+17)-A13BeLaK-Y92K: supercharged NSa1 monobody encoding BeLaK; SEQ. ID. NO: 19 (protein)
chain: B4 chain with Y113K
modifications: BeLaK non-natural residue at position 13; MOD_RES 34 X is N6-(2-Oxoazetidine-1-carbonyl)-L-lysine
notes: supercharged NSa1 monobody encoding BeLaK; ID; NO: 19
B5 gave a X-linking yield of 89%.

B6: NSa1(+10)-A13BeLaK-C95: supercharged NSa1 monobody encoding BeLaK, C-terminal Cys; SEQ. ID. NO: 22 (protein)
chain: MGSSHHHHHHSSGTENLYFQGVSSKPTKLRVVRXTPTSLKIKWDAPAKTVDYYVITYGETGRGGYAWQRFEVPGSKRTATIKGLKPGVDYTITVYAGYKGYPTYYSSPISINYRTC
modifications: BeLaK at position 13; C-terminal Cys; MOD_RES 34 X is N6-(2-Oxoazetidine-1-carbonyl)-L-lysine
notes: supercharged NSa1 monobody encoding BeLaK, C-terminal Cys; ID; NO: 22
Work on B6 yielded a X-linking yield of 22%.

B7: NSa1(+10)-A13BeLaK-C1: supercharged NSa1 monobody encoding BeLaK, N-terminal Cys; SEQ. ID. NO: 15 and 23 (protein)
chain 1: MGSSHHHHHHSSGTENLYFQGCVSSKPTKLRVVRXTPTSLKIKWDAPAKTVDYYVITYGETGRGGYAWQRFEVPGSKRTATIKGLKPGVDYTITVYAGYKGYPTYYSSPISINYRT
chain 2: B7 chain 1
modifications: BeLaK at position 13; N-terminal Cys; MOD_RES 35 X is N6-(2-Oxoazetidine-1-carbonyl)-L-lysine
notes: supercharged NSa1 monobody encoding BeLaK, N-terminal Cys; ID; NO: 15 and 23
Molecule B7 has a X-linking yield of 97%.
